Test results as given in patent US20170035908A1.

Key:
[1] = molecular target: PAM4 antigen (pancreatic cancer mucin, CaPan1 human pancreatic tumor); assay: ELISA on target mucin antigen (FIG. 9)
[2] = molecular target: PAM4 antigen (pancreatic cancer mucin, CaPan1 human pancreatic tumor); assay: TF10/111In-IMP-288 complex mixed with excess mucin, elution analysis
[3] = molecular target: PAM4 antigen (pancreatic cancer mucin, CaPan1 human pancreatic tumor); assay: radioiodinated TF10 mixed with mucin (not shown)
[4] = molecular target: IMP-288 di-HSG hapten-peptide, DOTA-D-Tyr-D-Lys(HSG)-D-Glu-D-Lys(HSG)-NH2; assay: 111In-IMP-288 mixed with TF10, elution analysis (not shown)

Row | EC50 [1] [nM] | percent of TF10-bound IMP-288 eluting at higher molecular weight with excess mucin [2] [%] | immunoreactive fraction [3] [%] | percent of peptide bound [4] [%] | Substance
1 | 1.83 | – | – | – | PAM4-F(ab′)2
2 | 1.42 | 92 | 87 | 90 | TF10 bispecific ([hPAM4]2 x h679) DNL construct (bispecific antibody)
